Experiment [1] concerns the target CLDN18.1 expressed on HEK 293 cells (UniProt P56856). Description: FACS, hybridoma supernatant on HEK 293 cells expressing CLDN 18.1.
Experiment [2] has as its target human Claudin 18.2 (CLDN18.2) expressed on cells (human) (UniProt P56856). Description: cell-based or functional assay.
The target of experiment [3] is T1, CLDN 7 expressed on HEK 293 cells (UniProt O95471).
T1 sequence (looked up): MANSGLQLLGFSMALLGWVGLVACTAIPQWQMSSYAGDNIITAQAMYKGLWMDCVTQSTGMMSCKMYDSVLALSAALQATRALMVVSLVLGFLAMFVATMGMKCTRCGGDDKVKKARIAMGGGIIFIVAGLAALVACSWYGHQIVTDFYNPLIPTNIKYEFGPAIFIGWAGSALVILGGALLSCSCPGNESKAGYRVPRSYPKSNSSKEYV
Description: FACS, transfected HEK 293 cells. A general note: In flow cytometry, cells or beads pass a laser one at a time.

The next experiment has as its target T2, Claudin-10.
T2 sequence (P78369 1-228, species assumed, looked up): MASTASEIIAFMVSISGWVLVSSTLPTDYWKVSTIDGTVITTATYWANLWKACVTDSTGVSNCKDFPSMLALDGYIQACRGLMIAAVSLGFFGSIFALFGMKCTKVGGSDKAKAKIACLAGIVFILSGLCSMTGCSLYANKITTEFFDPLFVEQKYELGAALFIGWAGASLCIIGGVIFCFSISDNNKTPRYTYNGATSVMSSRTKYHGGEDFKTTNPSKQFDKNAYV
Description: FACS, transfected HEK 293 cells.

The target in a further experiment is T3, Claudin-11.
T3 sequence (O75508 whole entry, species assumed, looked up): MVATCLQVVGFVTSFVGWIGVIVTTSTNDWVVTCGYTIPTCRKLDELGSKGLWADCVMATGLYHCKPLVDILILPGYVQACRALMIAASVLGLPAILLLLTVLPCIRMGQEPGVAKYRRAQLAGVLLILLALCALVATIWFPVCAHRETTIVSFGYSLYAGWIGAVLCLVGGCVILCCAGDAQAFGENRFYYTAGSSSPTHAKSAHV
Kind of experiment: FACS, transfected HEK 293 cells.

A further experiment addresses Claudin-12. Description: FACS, transfected HEK 293 cells.
A further experiment addresses Claudin-14. Description: FACS, transfected HEK 293 cells.
For another experiment, the target named is T4, Claudin-16.
T4 sequence (Q9Y5I7 1-235, species assumed, looked up): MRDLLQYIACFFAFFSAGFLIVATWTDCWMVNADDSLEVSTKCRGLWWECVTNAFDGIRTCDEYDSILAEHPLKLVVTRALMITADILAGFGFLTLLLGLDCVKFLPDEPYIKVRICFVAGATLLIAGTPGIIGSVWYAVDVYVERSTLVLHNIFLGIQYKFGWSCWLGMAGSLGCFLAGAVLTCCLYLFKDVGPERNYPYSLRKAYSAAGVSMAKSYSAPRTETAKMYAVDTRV
Kind of experiment: FACS, transfected HEK 293 cells.

In the next experiment the target is T5, Claudin-17.
T5 sequence (P56750 whole entry, species assumed, looked up): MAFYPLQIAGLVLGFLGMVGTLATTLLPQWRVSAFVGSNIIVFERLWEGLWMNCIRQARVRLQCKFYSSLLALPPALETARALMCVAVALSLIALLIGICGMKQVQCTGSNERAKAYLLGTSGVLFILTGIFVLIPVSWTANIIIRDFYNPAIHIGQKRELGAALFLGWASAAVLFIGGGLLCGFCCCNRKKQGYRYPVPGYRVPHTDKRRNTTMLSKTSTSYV
Kind of experiment: FACS, transfected HEK 293 cells.

Another experiment addresses T6, Claudin-19.
T6 sequence (Q8N6F1 whole entry, species assumed, looked up): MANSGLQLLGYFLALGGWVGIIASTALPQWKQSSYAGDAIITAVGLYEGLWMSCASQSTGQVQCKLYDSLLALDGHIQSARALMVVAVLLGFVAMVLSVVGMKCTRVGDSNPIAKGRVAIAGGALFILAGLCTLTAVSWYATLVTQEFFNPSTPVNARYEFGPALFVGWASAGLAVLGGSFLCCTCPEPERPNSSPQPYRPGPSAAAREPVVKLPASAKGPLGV
Description: FACS, transfected HEK 293 cells.

A further experiment deals with Claudin-1. Description: FACS, transfected HEK 293 cells.
A further experiment concerns the target Claudin-22. Kind of experiment: FACS, transfected HEK 293 cells.
The target in another experiment is T7, Claudin-23.
T7 sequence (Q96B33 1-292, species assumed, looked up): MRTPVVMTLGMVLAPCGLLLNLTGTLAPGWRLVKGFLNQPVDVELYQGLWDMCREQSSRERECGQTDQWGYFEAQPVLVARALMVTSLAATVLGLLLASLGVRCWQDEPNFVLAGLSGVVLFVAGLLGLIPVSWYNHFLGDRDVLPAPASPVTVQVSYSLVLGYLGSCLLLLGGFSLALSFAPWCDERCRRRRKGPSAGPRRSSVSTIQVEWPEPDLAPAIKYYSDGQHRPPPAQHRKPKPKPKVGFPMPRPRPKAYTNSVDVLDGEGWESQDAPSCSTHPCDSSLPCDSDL
Description: FACS, transfected HEK 293 cells.

Another experiment deals with T8, Claudin-2.
T8 sequence (P57739 whole entry, species assumed, looked up): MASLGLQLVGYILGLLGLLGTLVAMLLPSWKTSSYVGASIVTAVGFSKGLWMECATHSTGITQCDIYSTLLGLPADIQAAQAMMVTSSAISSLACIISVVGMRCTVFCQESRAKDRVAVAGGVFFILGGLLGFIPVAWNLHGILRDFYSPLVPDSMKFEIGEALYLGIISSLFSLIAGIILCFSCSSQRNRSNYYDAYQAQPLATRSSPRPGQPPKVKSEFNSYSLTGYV
Kind of experiment: FACS, transfected HEK 293 cells.

Another experiment has as its target Claudin-34. Kind of experiment: FACS, transfected HEK 293 cells.
For the next experiment, the target named is Claudin-3. Kind of experiment: FACS, transfected HEK 293 cells.
The target of another experiment is Claudin-4. Kind of experiment: FACS, transfected HEK 293 cells.
Another experiment deals with T9, Claudin-5.
T9 sequence (O00501 whole entry, species assumed, looked up): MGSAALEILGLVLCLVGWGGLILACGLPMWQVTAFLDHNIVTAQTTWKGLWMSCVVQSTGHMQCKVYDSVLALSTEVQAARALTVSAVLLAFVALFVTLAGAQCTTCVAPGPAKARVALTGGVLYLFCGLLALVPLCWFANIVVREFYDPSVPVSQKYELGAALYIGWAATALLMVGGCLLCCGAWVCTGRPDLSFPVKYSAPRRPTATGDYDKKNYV
Description: FACS, transfected HEK 293 cells.

The target in a further experiment is Claudin-8. Description: FACS, transfected HEK 293 cells.
A further experiment deals with Claudin-9. Kind of experiment: FACS, transfected HEK 293 cells.
Experiment [4] addresses human Claudin 18.2 (CLDN18.2) expressed on cells (human) (UniProt P56856). Description: FACS, purified antibody on HEK 293 cells expressing CLDN18.2.
Experiment [5] shares this target. Kind of experiment: FACS, transfected HEK 293 cells, first 18.2 column.
For experiment [6] the target is unchanged. Kind of experiment: FACS, transfected HEK 293 cells, second 18.2 column.
Experiment [7] has as its target purified CLDN18.2 protein (CLDN18.2 ligand) (human) (UniProt P56856). Kind of experiment: Octet (ForteBio), antibody on anti-human IgG capture sensor, CLDN18.2 ligand in solution, 1:1 fit. (BLI is a label-free optical method that tracks binding on a fibre tip over time.)
Experiment [8] shares this target. Description: BLI (ForteBio Octet RED 96), antibody on anti-human IgG capture sensor, CLDN18.2 ligand in solution, 1:1 fit.
For experiment [9] the target is unchanged. Kind of experiment: Octet (ForteBio), antibody on anti-human IgG capture sensor, CLDN18.2 ligand in solution, 1:1 fit; kdis(1/s).
Experiment [10] concerns the target CLDN18.1 expressed on HEK 293 cells (UniProt P56856). Description: FACS, transfected HEK293 cells, 10 ug/ml; HEK293 alone 14.2.
The target in experiment [11] is human Claudin 18.2 (CLDN18.2) expressed on cells (human) (UniProt P56856). The description is as above.
Another experiment concerns the target mouse-18.1 (mouse) (UniProt P56857). Described as above.
Another experiment has as its target mouse-18.2 (mouse) (UniProt P56857). The experiment is described as above.
In experiment [12] the target is human Claudin 18.2 (CLDN18.2) expressed on cells (human) (UniProt P56856). Kind of experiment: FACS, purified chimeric antibody on HEK 293 cells expressing CLDN18.2.

Values joined by “and” are separate entries in the source; they are usually repeats but may differ in a detail not shown here. Equal entries are not always repeated.

mouse-18.2 (mouse), sequence (P56857 other isoform, or with tags, fused parts or gaps): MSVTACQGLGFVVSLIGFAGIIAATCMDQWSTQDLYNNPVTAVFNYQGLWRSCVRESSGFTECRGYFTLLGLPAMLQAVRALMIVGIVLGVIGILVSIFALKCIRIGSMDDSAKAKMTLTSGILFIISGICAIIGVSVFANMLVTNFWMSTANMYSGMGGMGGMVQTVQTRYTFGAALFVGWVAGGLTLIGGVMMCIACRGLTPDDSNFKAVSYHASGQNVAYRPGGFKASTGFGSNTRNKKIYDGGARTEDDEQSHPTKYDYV
mouse-18.1 (mouse), sequence (P56857 whole entry): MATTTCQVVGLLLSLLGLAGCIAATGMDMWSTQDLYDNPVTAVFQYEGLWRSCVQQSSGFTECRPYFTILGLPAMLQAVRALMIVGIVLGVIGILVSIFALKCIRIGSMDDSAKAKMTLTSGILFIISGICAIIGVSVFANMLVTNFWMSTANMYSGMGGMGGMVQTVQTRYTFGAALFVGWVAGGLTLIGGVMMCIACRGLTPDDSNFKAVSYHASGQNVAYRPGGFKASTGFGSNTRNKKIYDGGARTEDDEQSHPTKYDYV

B1: 11E12 (mouse hybridoma subclone antibody) (antibody, V domains shown)
VH: QVQLQQSGAELARPGASVKLSCKASGYTFTSYVINWVKQKTGQGLEWIGEIHPRGGNTYYSEKFRGRATLTADKSSSTAYMEFRSLTSEDSAVYFCAILRRGNAMDYWDQGTAVTVSS
VL: DIVMTQSPSSLPVTAGEMVTMSCKSSQSLLNSGNQRNYLTWYQQKPGQPPKLLIYWASTRESGVPDRFTGSGSGTDFTLTISSVQAEDLAVYYCQNSYNYPYTFGGGTKLERK
B1 gave an MFI in experiment [1] of 30.

B2: Internal Reference (reference antibody with the heavy and light chain sequences of Zolbetuximab) (antibody, INN chains, looked up, V domains shown)
VH: QVQLQQPGAELVRPGASVKLSCKASGYTFTSYWINWVKQRPGQGLEWIGNIYPSDSYTNYNQKFKDKATLTVDKSSSTAYMQLSSPTSEDSAVYYCTRSWRGNSFDYWGQGTTLTVSS
VL: DIVMTQSPSSLTVTAGEKVTMSCKSSQSLLNSGNQKNYLTWYQQKPGQPPKLLIYWASTRESGVPDRFTGSGSGTDFTLTISSVQAEDLAVYYCQNDYSYPFTFGSGTKLEIKR
A word on the EC50: it is the concentration giving half of the maximal effect. A lower EC50 goes with an effect from little substance. For orientation: Kd means a measure of binding affinity in units of concentration. Higher therefore signals lower affinity. What is called kon is a measure of how fast the partners come together. The koff is a measure of how fast the partners let go of each other. Lower therefore signals slow dissociation. In experiment [2], B2 came in with an ADCC NUGC4 Cells of 610 ng/mL. For the same molecule, the ADCC with 293 cells expressing Claudin 18.2 in [2] is 0.014 nM and 0.006 nM. In addition, the MFI was 21.4 in experiment [3]; 20.8 with Claudin-10; 19.3 with Claudin-11; 21.4 with Claudin-12; 21.2 with Claudin-14; 19.5 with Claudin-16. In addition, the MFI in the experiment with Claudin-17 is 19.6; with Claudin-19, 18.1; with Claudin-1, 20.9; with Claudin-22 it was 19.9; in the experiment with Claudin-23 it was 19.8; with Claudin-2 it was 19.7. The MFI with Claudin-34 is 21.1; with Claudin-3 it was 20.8; in the experiment with Claudin-4, 18.7; in the experiment with Claudin-5, 18.4; with Claudin-8, 20.4; with Claudin-9, 20.4. The MFI in experiment [5] worked out at 4040; in experiment [6] it was 3880. Besides, the EC50 in experiment [4] is 1.17 nM. Moreover, in [4], the FACS Signal MFI (×1000) was 25000 MFI. In addition, the Kd in experiment [7] was 86.9 nM; in experiment [8], 89 nM and 71 nM. In experiment [7], this molecule gave an on-rate (kon) of 1600 M⁻¹ s⁻¹. The same molecule came in with a dissociation rate constant (koff) in experiment [9] of 0.000139 s⁻¹.

B3: Clone # 46 (purified chimeric rabbit/human antibody) (antibody, V domains shown)
VH: QQQLVESGGGLVKPGGTLTLTCTVSGFYFNRGYWICWVRQAPGKGLEWIGCIDTGSGVPYYANWAKGRFTISKTSSTAVTLQMTSLTAADTATYFCARNSDSIYFNLWGPGTLVTVSS
VL: DIVMTQTPASVSEPVGGTVTIKCQASQSIGGYLSWYQQKPGQPPKLLIYKASTLASGVPSRFKGSGSGTDFTLTISDLECADAATYYCQNYAGVSIYGAVFGGGTKVVVVR
Turning to B3, the ADCC NUGC4 Cells in experiment [2] amounted to 70 ng/mL. In [2], the ADCC with 293 cells expressing Claudin 18.2 came out at 0.015 nM. For the same molecule, the MFI in experiment [10] stood at 19.4; in [11] it was 553; with mouse-18.1 (mouse) it was 18.9; with mouse-18.2 (mouse) it was 3490. This molecule gave an EC50 in experiment [12] of 0.619 nM. The FACS Signal MFI (×1000) in experiment [12] worked out at 55000 MFI. Also, the Kd in [7] was determined as 12.5 nM; in experiment [8] it was 12 nM. The molecule also returned a kon in experiment [7] of 2320 M⁻¹ s⁻¹. The koff in experiment [9] was determined as 2.9e-05 s⁻¹.

The record behind these values is patent US20200040101A1.
